Residue numbers refer to the chain shown, from its start. Like-named read-outs stand apart in the source and are kept apart here.
Assays:
[1] = target: T1, Cys-HLA used for Octet assays following biotinylation at the N-terminal ectopic cysteine (Staphylococcus aureus, UniProt P09616 27-319)
[2] = target: T1, Cys-HLA used for Octet assays following …; experiment: BLI (Octet), biotinylated HLA on streptavidin sensors

B1: VHH antibody Ma7C11 (VHH)
VHH: QVQLVESGGGLVRAGGSLRLSCAASGSISSVNGMGWFRQAPGKERLFVAQVSLLDSSTYYADSVKGRFTISRDDAKNTMYLQMNNVRPEETAVYYCAATKLRIGTAFSSEYDYWGQGTQVTVSS
[1]
  Kd: 0.3 nM

B2: VHH antibody Ma7B01 (VHH)
VHH: QVQLVESGGGLVQAGDSLSLSCAASGRTFSNYAMGWFRQAPGKERHFVAVINQIGDSTWYPDFAKGRFTISRDNAKNTLYLQMNSLKPEDTAVYYCAATDPRSYWRIWPHEYGYWGQGTQVTVSS
[1]
  Kd: 0.05 nM

B3: VHH antibody Ma7E01 (VHH)
VHH: B2 VHH with L11S, A23V, G26E, Q53P, D56E, S57E, P109E, Y112F, G113D
[1]
  Kd: ≤ 0.01 nM

B4: VHH antibody Ma8H03 (VHH)
VHH: QVQLVESGGGLVHPGGSLRLSCAASGSSLDHYVIGWFRQVPGKQREGISCISSGGSTNYADSVKGRFTVSRDNVKSTVYLQMNSLAPDDSAEYYCAAQRNLGNFCVLGWLEYDDWGQGTQVTVSS
[1]
  Kd: ≤ 0.01 nM

B5: VHH antibody Ma7D06 (VHH)
VHH: QVQLVESGGGLVQAGGSLRLSCAASGSISGIDTMAWFRQIPGKDREFVAVIKWAAGSTWYPDFVKGRFTVSRDNAKNMVYLQMDSVKPEDTAIYYCAAAAGEKYYYRLFPYEYDYWGQGTQVTVSS
[1]
  Kd: 0.06 nM

B6: VHH antibody Ma8D07 (VHH)
VHH: QVQLVESGGGLVQPGGSLRLSCAASESIYKLNAMGWYRQAPGKELELVTTISSGGSTFYTDPVKGRFTISTDNAKNTVYLQMRSLKPEDTAMYYCAANPTYNHYSARGQGTQVTVSS
[1]
  Kd: 0.8 nM

B7: VHH antibody Ma8D08 (VHH)
VHH: B6 VHH with L11F, P14A
[1]
  Kd: 1 nM

B8: VHH antibody Ma7F02 (VHH)
VHH: QVQLVESGGGLVQAGGSLRLSCTVSGSIDSLHTMGWFRQAPGKKRDFVAVVSWSGGNTYYPDYAKGRFTISRDNTKNTVYLQMNSLKPEDTAIYYCAAESGSGNYWKIWEHEFDSWGQGTQVTVSS
[1]
  Kd: 0.04 nM
[2]
  Kd: ~0.05 nM

B9: VHH antibody Ma8E03 (VHH)
VHH: QVQLVESGGGLVHPGGSLRLSCAASGSSLDHYVIGWFRQVPGKEREGVSCISRSGGSTNYADSVKGRFTVSRDNVKNMVYLQMNSLEPEDSAEYYCAAQRNLGNFCVLGWLEYDDWGQGTQVTVSS
[1]
  Kd: ≤ 0.01 nM

B10: VHH antibody Ma8G02 (VHH)
VHH: B9 VHH with H13L, V40Y, L111V
[1]
  Kd: ≤ 0.01 nM

B11: VHH antibody Ma8A05 (VHH)
VHH: QVQLVESGGGLVQPGGSLRLSCAASPASGFTLDLYTIAWFLQAPGKEREGVSAISLSDEITYYSDAVKGRFTISRDSAKNTVFLQMDRLKPEDTGVYYCAIGAFDFILKEADADYWGQGTQVTVSS
[1]
  Kd: 0.6 nM

B12: VHH antibody Ma8D05 (VHH)
VHH: B11 VHH with A66T
[1]
  Kd: 1 nM

B13: VHH antibody Ma7C02 (VHH)
VHH: QVQLVESGGGLVQAGGSLRLSCAASGRTFSDYAMGWFRQAAGKDRDFVAVITRSGDSTYYPDSTKGRFTISRDNAKNTMYLQMNSLKPEDTARYYCAATDPTNYWRIWEHEFDYWGQGTQVTVSS
[1]
  Kd: 0.09 nM

B14: VHH antibody Ma7A07 (VHH)
VHH: QVQLVESGGGLVQPGGSLRLSCAASGFTLGDYTLGWFRQAPGKQREGVSSIASSALSIYIADSVKGRFTISRDDAKNTIYLHMNNLKPEDTGVYYCARGVDSWRWVPSAMDLWGKGTLVTVSS
[1]
  Kd: ≤ 0.01 nM

B15: VHH antibody Ma7B12 (VHH)
VHH: B14 VHH with D74N, I79V, V100I, S102N, L118Q
[1]
  Kd: ≤ 0.01 nM

B16: VHH antibody Ma7B03 (VHH)
VHH: B14 VHH with G30S, D31N, T33Y, L34V, A52G, A55D, D74N, E89D, V100T, L118Q
[1]
  Kd: ≤ 0.01 nM

B17: VHH antibody Ma7A08 (VHH)
VHH: B14 VHH with R19T, A55V, I58V
[1]
  Kd: ≤ 0.01 nM

From EP4410371A1 (Max-Planck-Gesellschaft zur Förderung der Wissenschaften …, dated 2024)
